Results published in patent US20040175378A1, “Selected antibody compositions and methods for binding to aminophospholipids” (Board of Regents, The University of Texas System, priority 2002, published 2004).

Assays:
[1] = test system: orthotopic MDA-MB-435 breast cancer; assay: 3G4 and ch3G4 tumor treatment; format: in vivo, mice
Experimental: Tumors were also established using MD-MBA-435s cells and treated as described above. […] The treatment of large L540 tumors, MDA-MB-231 and MD-MBA-435s tumor cells for 60 days is shown in FIG. 8D, FIG. 8E and FIG. 8F. The antibodies caused tumor vascular injury, thrombosis and necrosis and retarded tumor growth, with no evidence of toxicity.
MD-MBA-435s lucerifase cells were obtained from Dr. Angels Sierra Jimenez, Barcelona, Spain and were grown in 10% DMEM. Mice were injected with tumor cells as described as above, and at 2 weeks post injection, the tumors were measured and the volume recorded. […] Treatment was initiated by IP injection (800 μg) at day 15 and continued with injections of 200 μg every two to three days until the final injection of 400 μg at day 35. Tumor volumes and mouse body weights were measured on injection days. Mice were sacrificed and perfused with saline for 12 minutes. The organs and tumor were removed, snap-frozen in liquid nitrogen and the tumor sectioned for immunohistochemistical analysis.

RSV long strain = assay: RSV-infected A-549 cells, plaque assay; conditions: MOI 1, 100 μg antibody per well
human CMV AD169 [2] = assay: CMV viral load by plaque assay; format: cell-based; conditions: for decrease in viral titer: high m.o.i.
apoptotic tumor cells = assay: Dendritic cell uptake of apoptotic tumor cells; format: cell-based; conditions: Fc(γ)R mediated internalization of 3G4-ATC complexes
[3] = ELISA binding to anionic phospholipids in 5 mM EDTA (Ca2+ requirement)
Experimental: The specificity of the 9D2 antibody binding was validated by using control rat IgM of irrelevant specificity (Pharmingen, San Diego, Calif.). The specificity of annexin V binding to phospholipids, which is Ca^2+-dependent, was determined by diluting the reagent in the DPBS containing 5 mM EDTA. Additional negative controls consisted of washing the plates with the binding buffer containing 0.2% of a detergent Tween 20. This treatment extracts lipids, thus removing the phospholipid that was absorbed to plastic. Neither 9D2 antibody nor annexin V bound to detergent-washed plates.

human CMV AD169 [4] = assay: CMV-GFP infected HHF-R2 cells, fluorescent microscopy; conditions: MOI 0.01
bEnd.3 cells = assay: Growth of bEnd.3 cells in vitro; format: cell-based; conditions: 20 μg to 40 μg total IgG per well, 48 and 96 hours
Experimental: 20% DMEM alone (control) or 20% DMEM containing the antibodies (20 μg to 40 μg total IgG per well) was added 4 hours after seeding. Each clone was tested on two separate plates in triplicates. Cells were detached 48 and 96 hours later, the cell count was determined in each well and the average cell number per treatment was calculated.

Toxicity of 3G4 in mice = format: in vivo, BALB/c mice
Text: The following parameters were specifically examined.
There were no physical signs of toxicity, e.g. hair loss, loss of appetite, etc. […] Marrows in the treated animals were essentially completely cellular (as would be expected for a young mammal). Erythroid, granulocytic, lymphocytic progenitors and megakaryocytes were present in normal numbers.
Mice retain normal physical signs, bone marrow cellularity, white blood cell counts, histology and coagulation functions.

[5] = Liposome competition for 3G4 binding to immobilized PS; conditions: 3G4 0.1 μg/ml
Experimental: Liposomes were prepared from solutions of 5 mg of a single phospholipid in chloroform. The solutions were dried under nitrogen to form a thin layer in a round-bottomed glass flask. Ten ml of Tris buffer (0.1 M, pH 7.4) were then added and the flask was sonicated five times for 2 min. […] The mixture was added to PS-coated plates (after standard blocking), incubated for 1 hour, washed and the secondary antibody added. After 1 hour, the plates were washed and developed for 5 minutes using OPD.

Meth A fibrosarcoma = assay: 3G4 tumor treatment; format: in vivo, mouse
Experimental: In the subcutaneous model, mice are typically injected with 1×10^7 cells in 0.2 ml. Mice are not anesthetized, but are restrained using a steady grip of mouse skin exposing the right flank. A 1 ml syringe with a 23 gauge needle is used to inject 1×10^7 cells in 200 μl, just under the skin of the mice and a bleb will be seen. It is not unusual to observe a small amount of fluid leak from the injection site. A twisting motion may be used when withdrawing the needle from the subcutaneous injection to reduce this leakage. Tumor volume is measured by L×W×H.
Treatment was repeated 3 times a week. Animals were monitored twice a week for tumor measurements.

[6] = test system: Tissue Factor (TF)-induced coagulation
[7] = Binding to heparin, heparan sulfate and DNA
[8] = mouse, in vivo, iv
[9] = m.o.i. 0.01 pfu/cell, 100 μg/ml
[10] = 100 μg IP three times a week for 2 to 3 weeks

B1: 3G4: mouse IgG3 kappa monoclonal antibody binding PS and other anionic phospholipids; hybridoma ATCC PTA 4545 (antibody, V domains shown)
VH: EVQLQQSGPELEKPGASVKLSCKASGYSFTGYNMNWVKQSHGKSLEWIGHIDPYYGDTSYNQKFRGKATLTVDKSSSTAYMQLKSLTSEDSAVYYCVKGGYYGHWYFDVWGAGTTVTVSSATTTAPSVYPLVP
VL: DIQMTQSPSSLSASLGERVSLTCRASQDIGSSLNWLQQGPDGTIKRLIYATSSLDSGVPKRFSGSRSGSDYSLTISSLESEDFVDYYCLQYVSSPPTFGAGTKLELKRADAAPTVFIFGRIP
tumor growth as opposed to control ([1]; i.p. 800 μg day 15, 200 μg every two to three days, 400 μg day 35): effectively retarded tumor growth
growth retardation ([1]; orthotopic MDA-MB-435): 70%
decrease in viral titer (RSV long strain): 2 log10
decrease in viral titer (human CMV AD169 [2]; addition delayed to 48 hours): 2 log10
decrease in viral titer (human CMV AD169 [2]; addition up to 24 hours after infection): 5-6 log10
decrease in viral titer as compared to GV39G-treatment (human CMV AD169 [2]; m.o.i. 0.01 pfu/cell, 50 μg/ml): 3.5 log10
decrease in viral titer as compared to GV39G-treated cells (human CMV AD169 [2]; [9]): 6 log10
inhibition of viral replication (human CMV AD169 [2]; [9]): approximately 99.9999%
inhibition of viral replication compared to GV39G (human CMV AD169 [2]; m.o.i. 3, 50 μg/ml): 3 logs
decrease in viral titer as compared to GV39G-treated cells (human CMV AD169 [2]; m.o.i. 3, 100 μg/ml): 5 log10
enhancement of DC uptake of apoptotic tumor cells (apoptotic tumor cells): 300%
binding to anionic phospholipids in the presence of 5 mM EDTA [3]: unaffected by the presence of 5 mM EDTA
entry of the virus into the cells (human CMV AD169 [4]; day 3, 50 and 100 μg/ml): does not appear to significantly inhibit the entry of the virus
spread of CMV from the original infected cell (human CMV AD169 [4]; day 9, 100 and 50 μg/ml): restricted to the original singly-infected cell
inhibitory effect on growth of bEnd.3 cells (bEnd.3 cells): particularly effective
blood cell counts (Toxicity of 3G4 in mice; [10]): no changes in blood cell counts
bodyweight (Toxicity of 3G4 in mice; [10]): gained weight at the same rate as BBG3 treated mice
toxicity (Toxicity of 3G4 in mice; 1 mg purified 3G4 intraperitoneally): no toxicity was observed
toxicity (Toxicity of 3G4 in mice; more than 200 mice, 0.1 mg three times a week for 2-3 weeks): no instance of toxicity has been observed
binding to PS adsorbed to ELISA plates in the presence of liposomes [5]: blocked by liposomes prepared from PS, PA, PI, PG and CL
mice with long-term complete remissions (Meth A fibrosarcoma; Meth A-bearing mice): 50%
growth retardation (Meth A fibrosarcoma; syngeneic Meth A): 90%
inhibition of Tissue Factor (TF)-induced coagulation [6]: weak inhibition
binding to heparin, heparan sulfate or double or single stranded DNA [7]: does not bind detectably
Volume of distribution [8]: 0.1 L/kg
half-life in the α-phase of clearance [8]: 3 h
half-life in the β-phase of clearance [8]: 120 h
